Experiment in all cases: two-hybrid; bacterial adenylate cyclase two-hybrid (BACTH) in E. coli BTH101 (cya) or derivatives (ΔdsbA AP58, ΔdjlA AP63, rcsB::tet EAW1, rcsC::tet EAW2, rcsF::cat EAW4); proteins fused at their C-terminus to T18 or T25; some sets with DjlA or DjlA variants co-expressed downstream of IgaA-T18; overnight growth in LB with 0.5 mM IPTG at 30°C; beta-galactosidase (ONPG, OD420 kinetics at 28°C), plotted relative to IgaA/RcsD

The target in assay [1] is RcsD (E. coli) (UniProt P39838).
UniProt P39838, sequence (P39838 whole entry): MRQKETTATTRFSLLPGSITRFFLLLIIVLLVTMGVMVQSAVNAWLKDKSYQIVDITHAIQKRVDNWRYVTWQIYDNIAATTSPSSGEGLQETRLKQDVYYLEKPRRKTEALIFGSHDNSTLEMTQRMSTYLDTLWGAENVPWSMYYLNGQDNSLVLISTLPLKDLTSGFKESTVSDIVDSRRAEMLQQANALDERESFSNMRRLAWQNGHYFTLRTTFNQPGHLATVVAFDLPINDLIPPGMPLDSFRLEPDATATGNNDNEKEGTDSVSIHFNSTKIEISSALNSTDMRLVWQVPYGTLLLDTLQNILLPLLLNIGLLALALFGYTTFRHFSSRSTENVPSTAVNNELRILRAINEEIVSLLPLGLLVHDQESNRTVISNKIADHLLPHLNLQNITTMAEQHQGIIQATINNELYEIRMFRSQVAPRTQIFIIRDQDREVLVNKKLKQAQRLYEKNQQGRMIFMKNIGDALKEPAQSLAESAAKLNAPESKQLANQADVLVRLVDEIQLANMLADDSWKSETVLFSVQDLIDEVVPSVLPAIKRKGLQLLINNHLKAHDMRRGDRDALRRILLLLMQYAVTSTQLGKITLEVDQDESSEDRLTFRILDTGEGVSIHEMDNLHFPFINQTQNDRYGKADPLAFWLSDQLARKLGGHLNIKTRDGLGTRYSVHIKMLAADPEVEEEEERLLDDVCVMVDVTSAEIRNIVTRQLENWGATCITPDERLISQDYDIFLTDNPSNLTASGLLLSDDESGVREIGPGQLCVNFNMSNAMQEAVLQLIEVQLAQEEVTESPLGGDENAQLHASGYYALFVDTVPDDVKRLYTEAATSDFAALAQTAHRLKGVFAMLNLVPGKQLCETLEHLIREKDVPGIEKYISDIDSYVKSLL
For assay [2] the target is unchanged. This is another data set of the same source.
Assay [3] shares this target. The source holds these as a separate data set.
Assay [4] has the same target. The source holds these as a separate data set.
Assay [5] has the same target. This is another data set of the same source.
Assay [6] has the same target. This is another data set of the same source.

Read-outs that look alike come from different tables or passages of the source.

Beta-galactosidase activity (BACTH) (units (1000x the slope of OD420)) and beta-galactosidase activity (BACTH) data for one substance are collected here from publication PMC11709261.

In the case of IgaA (natural protein), the beta-galactosidase activity (BACTH) (units (1000x the slope of OD420)) in assay [1] turned out to be 569; in assay [2], 490; in assay [3], 578; in assay [4], 545; in assay [5], 577; in assay [6] it was 580. The substance also came in with a beta-galactosidase activity (BACTH) in assay [4] of 533 units.
